Publication PMC3567400 (Biochemistry, 2013)

Biological target: the molecule itself
Test: crystal structure

B1: LnmK (Tyr62Phe) (enzyme, Streptomyces atroolivaceus S-140, UniProt Q8GGP1 2-319, looked up)
chain: SITSSLDVRPEIKQAVTVRPGMCGPGSLFVGQLGDWTWETVSAQCDTDVFAARDASGNPTFLAFYYFRVRGGRELHPGSLTFGDRLTVTSGCYDQGTESVLTLHRIDRAGSDDAQRPLDLHEFYERPRDGSLYVENFNRWVTRSAPGSNEDLVKSSPPGFRNDGLPQLPAAYSPRAVYREARTAHTFRALDEPGFRLLPDTVEVEHPVDIVRDVNGVGLLYFASYFSMVDKAALALWRRLGRSDRAFLRRVVVDQQMCYLGNADLDSVLTLGARVRVSTETPGEELVDVVISDRDSGRVIAVSTLHTQHDAHDPKGEA
**Q.** Does B1 bind?
**A.** Result: binds
